Molecular target: SHIVC109P7 gp140 protein (soluble Env) (HIV-1 subtype C (Env of SHIVC109P7))
Experiment: native gel or EMSA

## SHIVC109P7 gp140 protein (soluble Env) (domain or fragment)
  stoichiometry N: 3

Source: paper PMC11861162
